Test [1] concerns the target T1, rHuman Erythropoietin R/Fc Chimera, CF (Cat# 963-ER) (human, UniProt P19235 25-250).
T1 construct: Bought from R&D Systems; also called EPO R/Fc; Epo R/Fc chimera
T1 sequence (looked up): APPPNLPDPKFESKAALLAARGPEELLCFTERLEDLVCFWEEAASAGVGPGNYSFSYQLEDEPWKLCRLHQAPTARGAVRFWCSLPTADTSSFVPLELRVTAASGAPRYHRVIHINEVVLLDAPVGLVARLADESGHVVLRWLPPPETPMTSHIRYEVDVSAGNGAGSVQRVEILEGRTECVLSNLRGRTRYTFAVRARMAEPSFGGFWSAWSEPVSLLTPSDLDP
Kind of test: Multispot ECL; Fab 920 nM. As to the method:
(§1) An 150 μl aliquot of 1% Bovine Serum Albumin (BSA) in Tris-buffered Saline Tween (TBST) was added to each well and allowed to incubate for 30 min at 20° C. followed by washing and tap drying to completely remove any residual solution. Subsequently, a 12.5 μl aliquot of 1% BSA TBST was added to each well followed by the addition of a 12.5 μl aliquot of a purified Fab. The plate was sealed and incubated for 1 hour at 20° C. with shaking.
(§2) Detection antibodies were prepared by individually conjugating both goat anti-human Kappa light chain polyclonal antibody (K3502-1MG, Sigma-Aldrich) and goat anti-human Lambda light chain polyclonal antibody (L1645-1 mL, Sigma-Aldrich) with Ruthenium (II) tris-bipyridine-(4-methylsulfone)-N-hydroxysuccinimide (SULFO-TAG NHS-ester, Meso Scale Discovery) according to the manufacturer's instructions. TAG-detection antibody at 25 μl was added to each well and allowed to incubate for 1 hour at 20° C. with shaking. Finally, 15 μl of Read Buffer P with Surfactant (Cat # R92PC-1, Meso Scale Discovery) was added to each well. The electrochemiluminescence was measured using a Sector Imager 2400 (Meso Scale Discovery). Data was analyzed by comparing the ECL signals for an antigen to the blank of each well. A signal to blank ratio of 4 or more was considered a “Hit” Fab.
(§3) To confirm a “Hit” from the initial Multispot ECL screening, a Fab concentration dependent titration was carried out to determine the Fab-antigen binding affinity.

For test [2], the target named is T2, rHuman IGF-1 sR, (IGF-1 sR), CF (Cat# 391-GR) (human, UniProt P08069 31-932).
T2 construct: Bought from R&D Systems; also called insulin-like growth factor-1 soluble receptor
Kind of test: Multispot ECL; Fab 920 nM. The protocol:
as §1, §2, §3

Test [3] addresses T3, rHuman Notch-1/Fc Chimera, CF (Cat# 3647-TK) (human, UniProt P46531 19-526).
T3 construct: Bought from R&D Systems
Kind of test: Multispot ECL; Fab 920 nM. As to the method:
as §1, §2, §3

For test [4], the target named is T4, Recombinant Human DLL4 (Cat# 1506-D4/CF) (human, UniProt Q9NR61 27-529).
T4 construct: Bought from R&D Systems; also called rHuman DLL4; hDLL4
Kind of test: Multispot ECL; Fab 920 nM. As to the method: as §1, §2, §3

Test [5] addresses T1, rHuman Erythropoietin R/Fc Chimera, CF …. Briefly: Multispot ECL; Fab 230 nM. As to the method: as §1, §2, §3
Test [6] deals with T2, rHuman IGF-1 sR, (IGF-1 sR), CF (Cat# …). Briefly: Multispot ECL; Fab 230 nM. The protocol:
as §1, §2, §3

Test [7] has as its target T3, rHuman Notch-1/Fc Chimera, CF (Cat# …). Briefly: Multispot ECL; Fab 230 nM. As to the method:
as §1, §2, §3

Test [8] deals with T4, Recombinant Human DLL4 (Cat# 1506-D4/CF). Kind of test: Multispot ECL; Fab 230 nM. The protocol: as §1, §2, §3
Test [9] concerns the target T1, rHuman Erythropoietin R/Fc Chimera, CF …. Briefly: Multispot ECL; Fab 57.5 nM. As to the method: as §1, §2, §3
For test [10], the target named is T2, rHuman IGF-1 sR, (IGF-1 sR), CF (Cat# …). Briefly: Multispot ECL; Fab 57.5 nM. As to the method:
as §1, §2, §3

Test [11] addresses T3, rHuman Notch-1/Fc Chimera, CF (Cat# …). Briefly: Multispot ECL; Fab 57.5 nM. The protocol: as §1, §2, §3
The target of test [12] is T4, Recombinant Human DLL4 (Cat# 1506-D4/CF). Briefly: Multispot ECL; Fab 57.5 nM. The protocol: as §1, §2, §3
Test [13] has as its target T1, rHuman Erythropoietin R/Fc Chimera, CF …. Briefly: Multispot ECL; Fab 14.375 nM. As to the method: as §1, §2, §3
In test [14] the target is T2, rHuman IGF-1 sR, (IGF-1 sR), CF (Cat# …). Kind of test: Multispot ECL; Fab 14.375 nM. As to the method: as §1, §2, §3
In test [15] the target is T3, rHuman Notch-1/Fc Chimera, CF (Cat# …). Briefly: Multispot ECL; Fab 14.375 nM. As to the method:
as §1, §2, §3

In test [16] the target is T4, Recombinant Human DLL4 (Cat# 1506-D4/CF). Briefly: Multispot ECL; Fab 14.375 nM. The protocol: as §1, §2, §3
Test [17] has as its target T1, rHuman Erythropoietin R/Fc Chimera, CF …. Kind of test: Multispot ECL; Fab 14.5 nM. The protocol:
as §1, §2, §3

Test [18] concerns the target T5, rHuman CD44/Fc Chimera, CF (Cat# 3660-CD) (human, UniProt P16070 21-220).
T5 construct: Bought from R&D Systems
Briefly: Multispot ECL; Fab 14.5 nM. As to the method:
as §1, §2, §3

Test [19] addresses T2, rHuman IGF-1 sR, (IGF-1 sR), CF (Cat# …). Kind of test: Multispot ECL; Fab 14.5 nM. The protocol: as §1, §2, §3
The target in test [20] is T6, rHuman ErbB2/Fc Chimera, CF (Cat# 1129-ER) (human, UniProt P04626 23-652).
T6 construct: Bought from R&D Systems; also called human epidermal growth factor 2 receptor (ErbB2)
Kind of test: Multispot ECL; Fab 14.5 nM. The protocol: as §1, §2, §3

For test [21], the target named is T3, rHuman Notch-1/Fc Chimera, CF (Cat# …). Briefly: Multispot ECL; Fab 14.5 nM. As to the method: as §1, §2, §3
Test [22] deals with T4, Recombinant Human DLL4 (Cat# 1506-D4/CF). Briefly: Multispot ECL; Fab 14.5 nM. The protocol:
as §1, §2, §3

In test [23] the target is T1, rHuman Erythropoietin R/Fc Chimera, CF …. Kind of test: Multispot ECL; Fab 930 nM. As to the method: as §1, §2, §3
Test [24] deals with T5, rHuman CD44/Fc Chimera, CF (Cat# …). Kind of test: Multispot ECL; Fab 930 nM. The protocol:
as §1, §2, §3

Test [25] has as its target T2, rHuman IGF-1 sR, (IGF-1 sR), CF (Cat# …). Kind of test: Multispot ECL; Fab 930 nM. The protocol:
as §1, §2, §3

Test [26] addresses T6, rHuman ErbB2/Fc Chimera, CF (Cat# …). Kind of test: Multispot ECL; Fab 930 nM. As to the method:
as §1, §2, §3

Test [27] deals with T3, rHuman Notch-1/Fc Chimera, CF (Cat# …). Briefly: Multispot ECL; Fab 930 nM. The protocol: as §1, §2, §3
Test [28] addresses T4, Recombinant Human DLL4 (Cat# 1506-D4/CF). Briefly: Multispot ECL; Fab 930 nM. The protocol: as §1, §2, §3
For test [29], the target named is T1, rHuman Erythropoietin R/Fc Chimera, CF …. Kind of test: Multispot ECL; Fab 58.1 nM. As to the method:
as §1, §2, §3

In test [30] the target is T5, rHuman CD44/Fc Chimera, CF (Cat# …). Kind of test: Multispot ECL; Fab 58.1 nM. As to the method: as §1, §2, §3
Test [31] deals with T2, rHuman IGF-1 sR, (IGF-1 sR), CF (Cat# …). Briefly: Multispot ECL; Fab 58.1 nM. As to the method: as §1, §2, §3
The target in test [32] is T6, rHuman ErbB2/Fc Chimera, CF (Cat# …). Briefly: Multispot ECL; Fab 58.1 nM. As to the method: as §1, §2, §3
The target in test [33] is T3, rHuman Notch-1/Fc Chimera, CF (Cat# …). Kind of test: Multispot ECL; Fab 58.1 nM. As to the method: as §1, §2, §3
Test [34] deals with T4, Recombinant Human DLL4 (Cat# 1506-D4/CF). Briefly: Multispot ECL; Fab 58.1 nM. As to the method:
as §1, §2, §3

The target in test [35] is T1, rHuman Erythropoietin R/Fc Chimera, CF …. Briefly: Multispot ECL; Fab 232.5 nM. The protocol:
as §1, §2, §3

The target of test [36] is T5, rHuman CD44/Fc Chimera, CF (Cat# …). Kind of test: Multispot ECL; Fab 232.5 nM. As to the method:
as §1, §2, §3

For test [37], the target named is T2, rHuman IGF-1 sR, (IGF-1 sR), CF (Cat# …). Briefly: Multispot ECL; Fab 232.5 nM. As to the method: as §1, §2, §3
Test [38] deals with T6, rHuman ErbB2/Fc Chimera, CF (Cat# …). Kind of test: Multispot ECL; Fab 232.5 nM. As to the method:
as §1, §2, §3

Test [39] has as its target T3, rHuman Notch-1/Fc Chimera, CF (Cat# …). Kind of test: Multispot ECL; Fab 232.5 nM. The protocol: as §1, §2, §3
In test [40] the target is T4, Recombinant Human DLL4 (Cat# 1506-D4/CF). Kind of test: Multispot ECL; Fab 232.5 nM. As to the method:
as §1, §2, §3

B1: Fab VH1-46_IGHD3-10*01_IGHJ4*01 & L12_IGKJ1*01 (Fab, V domains shown)
VH: QVQLVQSGAEVKKPGASVKVSCKASGYTFTSYYMHWVRQAPGQGLEWMGIINPSGGSTSYAQKFQGRVTMTRDTSTSTVYMELSSLRSEDTAVYYCAREYYYGSGSYYNDYFDYWGQGTLVTVSS
VL: not shown
notes: Germline-derived Fab from E. coli: VH in Plasmid A (CH1, His6 and Flag tags), VL in Plasmid C (kappa CL)
Consider B1, for which the ECL signal stood at 16400 in test [1]; 10200 in [2]; 20100 in test [3]; 73600 in test [4]; 6950 in [5]; 4760 in test [6]. Further, the ECL signal is 9740 in test [7]; 119000 in test [8]; 4040 in [9]; 2830 in test [10]; 5890 in [11]; 144000 in test [12]. Further, the ECL signal in test [13] came out at 2720; in [14], 1750; in test [15], 4210; in [16] it was 125000.

B2: Fab VH1-46_IGHD6-13*01_IGHJ4*01 & O1_IGKJ1*01 (Fab, V domains shown)
VH: QVQLVQSGAEVKKPGASVKVSCKASGYTFTSYYMHWVRQAPGQGLEWMGIINPSGGSTSYAQKFQGRVTMTRDTSTSTVYMELSSLRSEDTAVYYCAREGYSSSWYDYFDYWGQGTLVTVSS
VL: DIVMTQTPLSLPVTPGEPASISCRSSQSLLDSDDGNTYLDWYLQKPGQSPQLLIYTLSYRASGVPDRFSGSGSGTDFTLKISRVEAEDVGVYYCMQRIEFPSWTFGQGTKVEIKR
notes: as for B1
For the molecule B2, the ECL signal turned out to be 660 in test [17]; 212 in [18]; 234 in test [19]; 274 in test [20]; 317 in test [21]; 1150 in test [22]. In addition, the ECL signal in [23] amounted to 3010; in test [24], 1920; in [25] it was 1920; in test [26], 2220; in test [27] it was 2210; in test [28], 8160. Also, the ECL signal in [29] came out at 829; in [30], 375; in test [31], 343; in test [32], 322; in [33] it was 388; in test [34] it was 1880. Further, the ECL signal was found to be 1470 in [35]; 607 in test [36]; 569 in test [37]; 779 in test [38]; 778 in [39]; 3590 in test [40].

These data come from patent US20110318339A1 (FABRUS, published 2011).
